In the supplement of paper PMC12042874 one finds amyloid nucleation score data, which are given here for 140 substances.

The nature of this data set: amyloid nucleation score (Sup35N fusion, yeast selection) (log enrichment); library NNK2; higher = more nucleation; inactive = no reads after selection. Summed up:
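Peptides of 20 random codons, each fused to Sup35N, were expressed in psi-negative yeast. Cells were induced with 100 μM copper sulfate for 24 hours and grown 7 days at 30°C on medium lacking adenine and uracil, and plasmid inserts before and after selection were Illumina-sequenced. Nucleation scores are DiMSum log enrichments of output over input reads, centred on the mode score of non-aggregating sequences, and sequences under 100 input reads were excluded.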

± gives the uncertainty stated by the source.

Take RQSFVVDNNELCKFTCDYSC: the amyloid nucleation score turned out to be 7.376 ± 0.043. The substance TWRYHFADVGSILDLVG had an amyloid nucleation score of -0.277 ± 0.4.

In turn, LFYKVFAYLFFVDVVCASKG gave an amyloid nucleation score of 4.97 ± 0.062.

Consider YFWSFYEVISFDCYHLIIFS, for which the amyloid nucleation score was 0.004 ± 0.18. The substance YNCSI displayed an amyloid nucleation score of 4.29 ± 0.11. Then YRFRVLCQVCNHGLRYKFFT, with 0.372 ± 0.37; and HTAMCAVSGFRNIWSKPVKF, with -0.817 ± 1.1. Under YFNGERFTRFISMEE stands -1.21 ± 1.1; under WYYRLLWYVLSQGRMRGNVQ, -0.011 ± 0.41; under IFPVLPGTLYRCTMMC, -0.612 ± 0.32. Under RYAYLFGPGRCWMFLSVFPY stands 4.2 ± 0.069; under FKWALFG, “inactive”. Substance YVYDISGRITVNPITYKCQL came in with an amyloid nucleation score of -1.16 ± 0.64.

YFVSSC gave an amyloid nucleation score of -1.23 ± 0.35. SFSKNALDNRFWGRFSFFFG returned an amyloid nucleation score of 1.3 ± 0.34. As to SNFLVYS, the amyloid nucleation score is -0.636 ± 0.61.

The substance QHLFFIYSCYTKLGGTLAGE gave an amyloid nucleation score of 0.746 ± 0.2. Turning to VTVRRCSFFQVY, the amyloid nucleation score was -0.196 ± 0.41. Then NMVLWWPIMYHLAWRLGHDV, with -0.137 ± 0.38; and RDSKFRMPLKWKAFFMGVER, with 1.17 ± 0.38. Under WCGYMNSSIKSRYSTYTFRS stands 2.13 ± 0.088. On to VNMYSWVKVCWEILYTDRAG, for which the amyloid nucleation score was -0.906 ± 0.41. Under WTFLIIIWYLDIVV stands -1.76 ± 0.48. Then DWCVNVIERSGDTLEVMCNF, with 0.817 ± 0.8; and VHQRYRSVRCWNWIVM, with -0.545 ± 0.48; and NTFGLEILRGWSYVCLGRRR, with 5.323 ± 0.052. Take NLNSFMVADYLYGDQVQKVF: the amyloid nucleation score stood at 0.138 ± 0.8. Turning to NLRRCSHFHLACP, the amyloid nucleation score entry is “inactive”. Under WVVNRTQGYGRLSSGDEEVP stands 1.35 ± 0.37; under LNKNYWGL, -0.921 ± 0.39. Then TWSIYAHH, with 0.952 ± 0.58; and CIFWLDYATFDTGLSLYMCE, with -0.094 ± 1; and GLKNRVWL, with 1.05 ± 0.26. On to QNCSHGSLCG, for which the amyloid nucleation score was -0.022 ± 0.25. Under DVVMG stands 0.701 ± 0.51; under TNKYLVGSILYLFKHGWLGV, 0.067 ± 0.55; under WDCAWVLGLVAEGRLT, 6.09 ± 0.039. Then SQFAVRKEGTDSEEFLKSVV, with -0.197 ± 0.48. Regarding LRDTPLMGWYCFRSHLVTVS, the amyloid nucleation score is 1.3 ± 0.51. HYVYFGYECAFGGG registered an amyloid nucleation score of -0.365 ± 0.76. Under YNQVYES stands 2.84 ± 0.054; under VHLANSMLY, 3.15 ± 0.047; under LDVVWSRVVRCRCVSWGNSL, 0.054 ± 0.65. Then WHCLLGLNYLFGYVSYSTSW, with 4.99 ± 0.098; and RRVNFMKVTFNLKVILFRWS, with -1.52 ± 1.1; and RFTALADGYRFTLSLGIVSG, with 2.28 ± 0.12. Then LDMITTINS, with -1.6 ± 0.54. Turning to VTVRSFTNIRSTFKLDSPLL, the amyloid nucleation score was determined as 0.122 ± 0.29. With VGYLRELLYAEGT, the amyloid nucleation score was -0.476 ± 0.35.

In turn, MNKNYFSGLPGGSVCYSVEY yielded an amyloid nucleation score of -0.732 ± 0.38. Then WFSDIKSPASLLVSVVVVM, with 0.272 ± 0.57; and FSYNMACLNKLLSLSLYRFS, with -1.29 ± 0.44. The substance TTGNQLKKCVDKCGGRSGGE gave an amyloid nucleation score of 0.938 ± 0.45. Then VSSVVLCIIIRDGSMMFYYK, with “inactive”; and GSAGNYRRY, with 0.167 ± 0.56. Then EWCQFIR, with -0.199 ± 0.19; and EFWANRYGNHPLLGIHHCSP, with 0.135 ± 0.77. On to LYTLVFIKNFISMYLREILT, for which the amyloid nucleation score is -1.8 ± 0.48. Then LSIRWLTSCYLYGLLGSSGK, with 0.256 ± 0.29; and KSCGRLAAEYSPPRMACGHD, with 1.18 ± 0.41. Substance EPGRRSYSWFCITRVFVMR had an amyloid nucleation score of -0.171 ± 1. Under FSLCDILVLVNTNAGWAAFD stands -0.352 ± 1; under SSTVAGAIIE, 0.575 ± 0.18; under KERNRRAEAGSYNYVGVWVT, 0.951 ± 0.81. Take IVRQIASFGRIRDRTRDDEW: the amyloid nucleation score was determined as 3.05 ± 0.13. Take KCMQLAAFTRLLWTGPSARG: the amyloid nucleation score was found to be 1.85 ± 0.1. With DLKRLAWMLILSIYNRSTIM, the amyloid nucleation score is -0.221 ± 1.1. Under EILLR stands 0.269 ± 0.8; under VNTTDKWKVSEYKYQND, 0.254 ± 0.19. LFIDDVPVDSITYGIWARGC: the amyloid nucleation score was -1.5 ± 1.1. Then LVRMIIVYTCRW, with 0.533 ± 0.33; and WDNHYRIKYCG, with “inactive”; and YMSLNKTAVTCVCHM, with -0.425 ± 0.5. GPTNVIRTISRDTTIV showed an amyloid nucleation score of -0.646 ± 0.39. Then HSDMFRKIQVLILSVERQNE, with “inactive”; and WRYDSWFKRKHCMLLYICQG, with 0.003 ± 0.43. As to FVVIWAMDIDVLWSMGGKID, the amyloid nucleation score was 5.46 ± 0.061.

On to YEVGHPYFDDNCRICSFWWK, for which the amyloid nucleation score worked out at 1.82 ± 0.12. Substance CVMMLSSFLQRCRRVVLDSR gave an amyloid nucleation score of 0.325 ± 0.56. Then VSVNSGSVKLFVIPACCSYD, with 6.099 ± 0.055.

As to LLYQLRNMVILEHFMMIDFM, the amyloid nucleation score result is “inactive”. Under LVKNSIKRGYL stands “inactive”. As to KLDTLRFCVGAHLGTPTLCW, the amyloid nucleation score stood at 0.499 ± 0.34.

With YFFRMSWPLGPMTSFRTLYL, the amyloid nucleation score is -0.608 ± 0.4. Under GIRAVVL stands 0.374 ± 0.18; under HILICFWRVQVLKSACLYWT, 1.74 ± 0.11. Under YLLIPWKSKDPLHIGLLF stands -0.381 ± 1.1; under YNGRAIEHCQSMVSFRAVSR, -0.041 ± 0.6; under RDSQWGLSRKDFSHACVLTY, -0.408 ± 0.48. SSVAKVRGSVLYMGRSGWVG came in with an amyloid nucleation score of 0.138 ± 0.8. Under VPIKALLPHSKFGNQSRFNY stands 0.438 ± 0.4; under PPIRVYNLSSTYPMDMSSQR, -0.8 ± 0.27; under DVSLNRGVRPF, -0.123 ± 0.76. Take VSSRYCTCRLCHPWYSFWFS: the amyloid nucleation score was -0.625 ± 0.54.

As for LLVFNLIYPSVRKGFFIIYA, the amyloid nucleation score result is “inactive”. Under IDRCRNC stands “inactive”. As for SLSFCVLEVSTCGCMSGYVG, the amyloid nucleation score was found to be 10.24 ± 0.05.

In the case of ICRNGLSL, the amyloid nucleation score stood at 0.098 ± 0.26. Then PRCYLVLKFYSQCLFSVHTF, with “inactive”. Then RNVSNRPNAQIRKSVRCCWG, with 0.388 ± 0.42; and LMGLQMSLPWSNEIVRVIPD, with -0.663 ± 0.49; and NLFFVGPCELSRWLGFSNLQ, with 5.874 ± 0.032.

PIWWLL returned an amyloid nucleation score of -0.822 ± 0.79. Then STFFKLD, with -1.88 ± 1.1.

In turn, GVLYWALLDGGVQRGQDMKL yielded an amyloid nucleation score of 0.641 ± 0.62.

In the case of NRMEYV, the amyloid nucleation score was 1.02 ± 0.23. Under RMLLIGIRCLIMSWHMLHN stands -0.029 ± 0.37; under TMQSWFSAFYLVVDMPTRYC, -0.232 ± 0.29. Under FSMLF stands -0.462 ± 0.56; under FSVFTD, -0.678 ± 0.61. Under LCEEICLDFFMVRMFKHASY stands 1.63 ± 0.11. Regarding KADLRKHSLDIGSCADGIRI, the amyloid nucleation score stood at 0.416 ± 0.8. Then ICIFHDWVIIICCSIRMRCL, with -0.823 ± 0.63; and YRPCGRTSPCGSGYKVSNEF, with 1.57 ± 0.15. Under SCIMLIVPMINSAYAVLLWR stands -0.771 ± 0.62; under YLKRPRPRRLGSP, 0.405 ± 0.33; under SRTSSKAYTPYFVSRGHDRY, -0.903 ± 0.76. The substance CRGVNVHDSSW returned an amyloid nucleation score of -0.321 ± 0.22. Under DRYISLCGW stands -0.086 ± 0.56; under HGSQRFDFWGGYRYW, 0.83 ± 0.13.

With CELRIFTCHDSCAVLDRWME, the amyloid nucleation score came out at 1.16 ± 0.18. Under VMCFNAVSLTFVFRDMTSYY stands 8.804 ± 0.05; under YFTSGNDDSVFDVYRSIWMV, 2.91 ± 0.13; under DLSQYDCVNVFALPGWCNNT, 4.35 ± 0.048. Substance PRVNILWYNRMLYAWFRPVV yielded an amyloid nucleation score of -1.21 ± 0.55. Under GMGIHFKASGRGPLIVGERD stands 0.75 ± 0.44; under YKLFWKWGFSGITDDSTLMR, “inactive”.

EWCQKGSAEIRASRCQ: the amyloid nucleation score stood at 0.58 ± 0.18.

Consider DSEGSA, for which the amyloid nucleation score entry is “inactive”.

LSRDVHCSRFSHREGLITRT: the amyloid nucleation score came out at 0.767 ± 0.74. Then VKDDTSHPYRGFYYRVIRRN, with 1.08 ± 0.16. Under RPWLVY stands 0.026 ± 1.1; under YLASFVFGIVNTYSAVALS, 0.552 ± 0.66. Substance IIYYMTVCQDSIDRIVPFCN showed an amyloid nucleation score of 2.01 ± 0.14.

In turn, FWLVL registered an amyloid nucleation score of -1.47 ± 0.73.

With FRFANRVTIKSFLGV, the amyloid nucleation score result is “inactive”. As to TVRFVRFYSPLWLSVTYRLT, the amyloid nucleation score was 0.412 ± 0.55. Then KKSSECHKSEG, with 0.361 ± 0.45. Under NRQRRPRLVDKYGASRGVVY stands 3.31 ± 0.11. Under PIGHLFQET stands 0.92 ± 0.24.
